The source of these data is article PMC5031558 (2016).

To fix the notation:
B2: SPATA2 PUB domain (aa 1–241) (domain or fragment)
chain: MGKPSSMDTKFKDDLFRKYVQFHESKVDTTTSRQRPGSDECLRVAASTLLSLHKVDPFYRFRLIQFYEVVESSLRSLSSSSLRALHGAFSMLETVGINLFLYPWKKEFRSIKTYTGPFVYYVKSTLLEEDIRAILSCMGYTPELGTAYKLRELVETLQVKMVSFELFLAKVECEQMLEIHSQVKDKGYSELDIVSERKSSAEDVRGCSDALRRRAEGREHLTASMSRVALQKSASERAAKD

The target of assay [1] is B2. Nature of the assay: SPR; kinetic. In general terms: In SPR one partner is held on a chip, and binding of the other changes the refractive index at the surface.
In assay [2] the target is B2. Nature of the assay: SPR.
Assay [3] concerns the target T1, CYLD USP domain L622D (human, UniProt Q9NQC7 583-956, L622D).
T1 sequence: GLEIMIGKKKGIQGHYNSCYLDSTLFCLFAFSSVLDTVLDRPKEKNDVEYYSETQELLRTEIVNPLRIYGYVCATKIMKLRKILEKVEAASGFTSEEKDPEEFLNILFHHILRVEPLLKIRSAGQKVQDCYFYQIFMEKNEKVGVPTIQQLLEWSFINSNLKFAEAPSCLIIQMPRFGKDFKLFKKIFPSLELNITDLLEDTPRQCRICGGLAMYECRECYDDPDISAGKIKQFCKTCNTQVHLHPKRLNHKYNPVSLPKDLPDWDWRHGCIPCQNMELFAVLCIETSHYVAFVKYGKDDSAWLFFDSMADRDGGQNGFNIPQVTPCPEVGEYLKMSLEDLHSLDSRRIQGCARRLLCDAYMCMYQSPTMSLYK
Nature of the assay: SPR; equilibrium.

The target in assay [4] is T2, CYLD USP domain I790D (human, UniProt Q9NQC7 583-956, I790D).
T2 sequence: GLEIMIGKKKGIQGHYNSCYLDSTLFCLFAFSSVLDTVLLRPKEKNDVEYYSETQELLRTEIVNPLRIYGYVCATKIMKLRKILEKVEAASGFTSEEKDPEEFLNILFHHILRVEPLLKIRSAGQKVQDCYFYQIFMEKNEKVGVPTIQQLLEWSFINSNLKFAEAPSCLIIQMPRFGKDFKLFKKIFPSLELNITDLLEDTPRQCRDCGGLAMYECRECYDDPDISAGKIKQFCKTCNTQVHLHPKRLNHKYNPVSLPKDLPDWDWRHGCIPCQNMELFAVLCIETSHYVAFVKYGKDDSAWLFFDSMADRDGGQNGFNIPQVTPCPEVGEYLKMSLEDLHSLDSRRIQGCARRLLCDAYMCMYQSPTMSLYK
As to the kind of experiment: SPR; kinetic.

For assay [5], the target named is CYLD ΔB-box (purified USP domain without the B-box) (human, UniProt Q9NQC7 592-950). As to the kind of experiment: SPR; equilibrium.
For assay [6], the target named is T2, CYLD USP domain I790D. As to the kind of experiment: SPR.

Bounds are passed on as bounds.

B1: CYLD USP domain (aa 583–956) (domain or fragment)
chain: GLEIMIGKKKGIQGHYNSCYLDSTLFCLFAFSSVLDTVLLRPKEKNDVEYYSETQELLRTEIVNPLRIYGYVCATKIMKLRKILEKVEAASGFTSEEKDPEEFLNILFHHILRVEPLLKIRSAGQKVQDCYFYQIFMEKNEKVGVPTIQQLLEWSFINSNLKFAEAPSCLIIQMPRFGKDFKLFKKIFPSLELNITDLLEDTPRQCRICGGLAMYECRECYDDPDISAGKIKQFCKTCNTQVHLHPKRLNHKYNPVSLPKDLPDWDWRHGCIPCQNMELFAVLCIETSHYVAFVKYGKDDSAWLFFDSMADRDGGQNGFNIPQVTPCPEVGEYLKMSLEDLHSLDSRRIQGCARRLLCDAYMCMYQSPTMSLYK
In general, Kd refers to the concentration at which binding is half-saturated. As a reminder, the koff is the rate constant with which the complex falls apart. For the molecule B1, the Kd in assay [1] amounted to 84 nM. The koff in assay [2] came to 0.02 s⁻¹.

With B2, the Kd is greater than 60000 nM in assay [3], 585 nM in assay [4] and greater than 100000 nM in assay [5]. In assay [6], this molecule returned a koff of 0.086 s⁻¹.
